Among the data in EP2975062B1 are The relative fluorescence ratio (firefly/Renilla luciferase, c-fos-pGL3 reporter, NIH-3T3 transfected with c-mpl-pcDNA3.1) values, retold here.

The target of the assay is c-mpl receptor (TPO receptor), expressed from c-mpl-pcDNA3.1 in NIH-3T3 cells. As to the kind of experiment: cell-based or functional assay.

Consider “recombinant human TPO (rhTPO) (from UniProt P40225 22-353) (ligand)”, for which the The relative fluorescence ratio (firefly/Renilla luciferase, c-fos-pGL3 reporter, NIH-3T3 transfected with c-mpl-pcDNA3.1) came out at 1.65.
